# From patent US9994845
# B1: purified recombinant full-length Kif19 (protein)
# chain: MKDSGDSKDQQLMVALRVRPISVAELEEGATLIAHKVDEQMVVLMDPMEDPDDILRAHRSREKSYLFDVAFDFTATQEMVYQATTKSLIEGVISGYNATVFAYGPTGCGKTYTMLGTDQEPGIYVQTLNDLFRAIEETSNDMEYEVSMSYLEIYNEMIRDLLNPSLGYLELREDSKGVIQVAGITEVSTINAKEIMQLLMKGNRQRTQEPTAANQTSSRSHAVLQVTVRQRSRVKNILQEVRQGRLFMIDLAGSERASQTQNRGQRMKEGAHINRSLLALGNCINALSDKGSNKYINYRDSKLTRLLKDSLGGNSRTVMIAHISPASSAFEESRNTLTYAGRAKNIKTRVKQNLLNVSYHIAQYTSIIADLRGEIQRLKRKIDEQTGRGQARGRQDRGDIRHIQAEVQLHSGQGEKAGMGQLREQLASAFQEQMDVRRRLLELENRAMEVQIDTSRHLLTIAGWKHEKSRRALKWREEQRKECYAKDDSEKDSDTGDDQPDILEPPEVAAARESIAALVDEQKQLRKQKLALEQRCRELRARGRRLEETLPRRIGSEEQREVLSLLCRVHELEVENTEMQSHALLRDGALRHRHEAVRRLEQHRSLCDEIIQGQRQIIDDYNLAVPQRLEELYEVYLRELEEGSLEQATIMDQVASRALQDSSLPKITPAGTSLTPDSDLESVKTLSSDAQHLQNSALPPLSTESEGHHVFKAGTGAWQAKSSSVPTPPPIQLGSLVTQEAPAQDSLGSWINSSPDSSENLSEIPLSHKERKEILTGTKCIWVKAARRRSRALGTEGRHLLAPATERSSLSLHSLSEGDDARPPGPLACKRPPSPTLQHAASEDNLSSSTGEAPSRAVGHHGDGPRPWLRGQKKSLGKKREESLEAKRRKRRSRSFEVTGQGLSHPKTHLLGPHQAERISDHRMPVCRHPAPGIRHLGKVTLPLAKVKLPPSQNTGPGDSSPLAVPPNPGGGSRRATRGPRLPHGTSTHGKDGCSRHN
# Molecular target: fluorescently-labeled taxol-stabilized microtubules
protein,measurement,value
B1,"microtubule depolymerization in vitro (TIRF time series, 5 minutes)",Kif-19 depolymerizes microtubules in vitro
